Experimental findings from US20030032582A1 are described below.

Some targets named below: TCR Vβ8 (human); TCR Vβ5 (human); TCR Vβ2 (human).
Common to all, as to experiment: cell-based or functional assay

As to H-TSST1 (ligand), in the experiment with TCR Vβ8 (human), the CD3^+ Blasts Binding Anti-Vβ (%) is 4.6%; the CD3^+ Blasts Binding Anti-Vβ, fold difference versus unstimulated controls stood at 1.1 fold; the CD3^+ Lymphocytes Binding Anti-Vβ (%) turned out to be 4.1%; the CD3^+ Lymphocytes Binding Anti-Vβ, fold difference versus unstimulated controls was 1 fold. For the same substance, in the experiment with TCR Vβ5 (human), the CD3^+ Blasts Binding Anti-Vβ (%) amounted to 4.5%; the CD3^+ Blasts Binding Anti-Vβ, fold difference versus unstimulated controls was found to be 2 fold; the CD3^+ Lymphocytes Binding Anti-Vβ (%) came to 2%; the CD3^+ Lymphocytes Binding Anti-Vβ, fold difference versus unstimulated controls turned out to be 0.9 fold. Moreover, in the experiment with TCR Vβ2 (human), the CD3^+ Blasts Binding Anti-Vβ (%) was found to be 33%; the CD3^+ Blasts Binding Anti-Vβ, fold difference versus unstimulated controls is 3.4 fold; the CD3^+ Lymphocytes Binding Anti-Vβ (%) stood at 5.1%; the CD3^+ Lymphocytes Binding Anti-Vβ, fold difference versus unstimulated controls stood at 0.5 fold.
